Target: rat GluA2igQ with a His8/Myc tag between residues 22 and 23 (rat)
Experiment: AFM imaging of receptor-antibody complexes; receptors isolated by immunoaffinity chromatography from the total cellular pool, incubated with subunit- or tag-specific antibodies, adsorbed to mica at 0.04 nM, imaged in air in tapping mode; volumes of decorated particles and angles between two bound antibodies

stoichiometry N: 4
Substance: rat GluA2igQ with a His8/Myc tag between residues 22 and 23 (receptor)

From paper PMC3724652
